The results in this text go back to publication PMC6561935, “Hsp90 middle domain phosphorylation initiates a complex conformational program to recruit the ATPase-stimulating cochaperone Aha1” (Nature Communications, 2019).

In one experiment the target is Hsp90-H210A (human) (UniProt P07900). As to the kind of experiment: ITC; 20 mM Tris pH 7.5, 5 mM NaCl, 1 mM EDTA, 30 °C; Hsp90 listed as protein, hAha1 as ligand; at least 3 experiments.
Experiment [1] concerns the target purified Hsp90-H210A (human) (UniProt P07900). As to the kind of experiment: ITC; Supplementary Table 2, obtained separately: 20 mM Tris pH 7.5, 5 mM NaCl, 1 mM EDTA, 30 °C.

As for “Human Aha1 (wild-type, full-length) (from UniProt O95433 1-338) (natural protein)”, in the experiment with Hsp90-H210A (human), the dissociation constant (Kd) came out at 14.6 µM and the stoichiometry N turned out to be 0.37.
On to “purified full-length Aha1 (from UniProt O95433 1-338) (natural protein)”, for which the fold increase of Kd against wild-type Hsp90 in experiment [1] came out at 2 fold.
